{"source": "patent US20190233522A1", "about": "“NEW DOSAGE REGIMENS FOR ANTIBODY DRUG CONJUGATES BASED ON ANTI-AXL ANTIBODIES” (GENMAB A/S, priority 2016, published 2019)", "key": {"[1]": {"assay": "Pre-clinical PK studies in cynomolgus monkey", "format": "in vivo", "source_text": "Data from 5 in-vivo pre-clinical studies, shown in the Table below, were provided, containing measurements of the plasma ADC level, plasma IgG level, and plasma MMAE level (only measured in study 5).\nAll studies appeared to show a significant drop in plasma concentrations of ADC/IgG after the 2nd dose when compared to the first dose, which corresponded with an ADA response. As this is a fully human antibody, ADA response are only very rarely expected to occur in humans. Therefore, only data after the first dose were included in the data preparation and subsequently modelled."}, "MDA-MB231 cells": {"system": "MDA-MB231 cells", "assay": "Cytotoxicity assay (CellTiter-Glo) in MDA-MB231 cells", "format": "cell-based", "settings": "MDA-MB231 (n = 2), 5 days incubation", "method": "(§1) LCLC-103H cells (human large cell lung cancer) and A431 cells (DMSZ, Braunschweig, Germany) were cultured in RPMI 1640 with L-Glutamine (Cambrex; cat.no. BE12-115F) supplemented with 10% (vol/vol) heat inactivated Cosmic Calf Serum (Perbio; cat.no. SH30087.03), 2 mM L-glutamine (Cambrex; cat.no. US17-905C), 50 IU/mL penicillin, and 50 µg/mL streptomycin (Cambrex; cat.no. DE17-603E). MDA-MB231 cells were cultured in DMEM with high glucose and HEPES (Lonza #BE12-709F), Donor Bovine Serum with Iron (Life Technologies #10371-029), 2 mM L-glutamine (Lonza #BE17 -605E), 1 mM Sodium Pyruvate (Lonza #BE13-115E), and MEM Non-Essential Amino Acids Solution (Life Technologies #11140). The cell lines were maintained at 37° C. in a 5% (vol/vol) CO2 humidified incubator. LCLC-103H, A431 and MDA-MB231 cells were cultured to near confluency, after which cells were trypsinized, resuspended in culture medium and passed through a cell strainer (BD Falcon, cat.no. 352340) to obtain a single cell suspension. […]\n(§2) Subsequently, 180 μL per well was transferred to white 96-well Optiplate™ plates (PerkinElmer, Waltham, Mass.; cat.no. 6005299), which were incubated for 30 min at room temperature. Finally, luminescence was measured on an EnVision multiplate reader (Envision, Perkin Elmer)."}, "[2]": {"system": "LCLC-103H xenograft tumors", "assay": "Therapeutic treatment of SC LCLC-103H tumor xenografts (Example 3)", "format": "in vivo, SCID mice", "method": "The in vivo efficacy of MMAE-conjugated anti-AXL antibodies was determined in established subcutaneous (SC) LCLC-103H xenograft tumors in SCID mice. 5×10^6 LCLC-103H (large cell lung carcinoma) tumor cells (obtained from Leibniz-Institut DSMZ-Deutsche Sammlung von Mikroorganismen and Zellkulturen GmbH (DSMZ)) in 200 μL PBS were injected subcutaneously in the right flank of female SCID mice. Starting 14-21 days after tumor cell inoculation, when the average tumor size was >100-200 mm^3 and distinct tumor growth was observed, a single injection with 1 mg/kg (20 μg/mouse) IgG1-AXL-vcMMAE antibodies or control (unconjugated IgG1-b12) was given intraperitoneally (100 μL/mouse). Tumor volume was determined at least two times per week. Tumor volumes (mm^3) were calculated from caliper (PLEXX) measurements as: 0.52×(length)×(width)^2."}, "AXL": {"target": "AXL (Homo sapiens, UniProt P30530)", "assay": "Competition with Gas6 for binding to AXL"}, "LCLC-103H cells": {"system": "LCLC-103H cells", "assay": "Cytotoxicity assay (CellTiter-Glo) in LCLC-103H cells", "format": "cell-based, human", "settings": "5 days incubation", "method": "as §1, §2"}, "A431 tumors": {"system": "A431 tumors", "assay": "A431 xenograft model (high Gas6)", "format": "in vivo", "settings": "3 mg/kg i.p., SCID mice", "method": "(§3) Tumor induction was performed by subcutaneous injection of 5×10^6 A431 or LCLC-103H tumor cells (both obtained from Leibniz-Institut—Deutsche Sammlung von Mikroorganismen and Zellkulturen GmbH (DSMZ)) in 200 μL PBS in the right flank of female SCID mice. Treatment was started 14-21 days after tumor cell inoculation, when the average tumor size was >100-200 mm^3 and distinct tumor growth was observed. Mice received a single injection or a total of 4 biweekly intraperitoneal injections with IgG1-AXL-vcMMAE ADCs or control antibody (unconjugated IgG1-b12), as indicated. Tumor volume was determined at least two times per week. Tumor volumes (mm^3) were calculated from caliper (PLEXX) measurements as: 0.52×(length)×(width)^2."}, "PAXF1657 tumors": {"system": "PAXF1657 tumors", "assay": "PAXF1657 pancreas cancer PDX model", "format": "in vivo, NMRI nu/nu mice", "method": "Human pancreas tumor tissue was subcutaneously implanted in the left flank of 5-7 weeks old female NMRI nu/nu mice. […] At day of randomization (day 0), the 3 ADCs were dosed intravenously (i.v.) at either 4 mg/kg or 2 mg/kg, and the control group received a single dose of IgG1-b12 (4 mg/kg). Tumor volumes (mm^3) were monitored twice weekly and were calculated from caliper (PLEXX) measurements as: 0.52×(length)×(width)^2."}, "A431 cells": {"system": "A431 cells", "assay": "Cytotoxicity assay (CellTiter-Glo) in A431 cells", "format": "cell-based", "settings": "A431 (n = 3), 5 days incubation", "method": "as §1, §2"}, "LCLC-103H tumors": {"system": "LCLC-103H tumors", "assay": "LCLC-103H xenograft model (low Gas6, Example 5)", "format": "in vivo", "settings": "3 mg/kg i.p., SCID mice", "method": "as §3"}}, "data": [{"molecule": "IgG1-AXL-148-vcMMAE: anti-AXL antibody 148 (VH SEQ ID No 5, VL SEQ ID No 6), Ig2 binder, conjugated to vcMMAE (conjugate, vc-MMAE conjugate; homo sapiens) VH: EVQLLESGGGLVQPGGSLRLSCAASGFTFSSYAMTWVRQAPGKGLEWVSAISISGGSTFYADSVKGRFTISRDNSKNTLYLQMNSLRAEDTAVYYCRGYSGYVYDAFDFWGQGTMVTVSS VL: DIQMTQSPSSLSASVGDRVTITCRASQGISNWLAWYQQKPEKAPKSLIYAASSLQSGVPSRFSGSGSGTDFTLTISSLQPEDFATYYCQQYNSYPLTFGGGTKVEIK", "values": [{"measurement": "pharmacokinetic properties, unconjugated antibody (study 3) versus ADC (study 2)", "setting": "[1]", "result": "similar"}, {"measurement": "EC50 Mean", "setting": "MDA-MB231 cells", "result": 0.012, "unit": "µg/mL"}, {"measurement": "complete tumor reduction", "setting": "[2]; 1 mg/kg single i.p.", "result": "in some mice within these groups to complete tumor reduction"}, {"measurement": "tumor volume versus control IgG1-b12", "setting": "[2]; day 30, One Way ANOVA (Dunnett's), 1 mg/kg single i.p.", "result": "highly significant difference"}, {"measurement": "anti-tumor activity in established SC LCLC-103H tumors", "setting": "[2]; single i.p. injection 1 mg/kg, SCID mice", "result": "induced tumor regression"}, {"measurement": "competition with Gas6 for binding to AXL", "setting": "AXL", "result": "lack of competition"}, {"measurement": "EC50", "setting": "LCLC-103H cells", "result": 0.012, "unit": "µg/mL"}, {"measurement": "anti-tumor activity on A431 tumors", "setting": "A431 tumors", "result": "induced growth inhibition"}, {"measurement": "growth of PAXF1657 tumors compared to the control group", "setting": "PAXF1657 tumors; 2 mg/kg i.v., day 0", "result": "significantly reduced the growth"}, {"measurement": "anti-tumor activity on PAXF1657 tumors", "setting": "PAXF1657 tumors; 4 mg/kg i.v., day 0", "result": "induced tumor regression"}, {"measurement": "average tumor size versus isotype control IgG1-b12", "setting": "PAXF1657 tumors; day 14, 2 mg/kg or 4 mg/kg, p<0.001 Tukey's multiple comparison test", "result": "significantly smaller"}, {"measurement": "anti-tumor activity in the PAXF1657 model", "setting": "PAXF1657 tumors; dose not given", "result": "induced dose-dependent antitumor activity"}, {"measurement": "EC50 Mean", "setting": "A431 cells", "result": 0.070, "unit": "µg/mL"}, {"measurement": "anti-tumor activity in the LCLC-103H xenograft model", "setting": "LCLC-103H tumors", "result": "induced tumor regression"}]}]}
